Laboratory results published in patent US20080305188A9, “Composition and method for supporting cancer treatments” (priority 2003, published 2008).
Read-outs that look alike come from different tables or passages of the source. Marks after values point to notes of the source that are not given here.

What was measured:
[1] = Body weight of mice given 5-Fu; type: in vivo
[2] = test system: BALB/c mice injected with 5-Fu; assay: Blood cell counts in mice given 5-Fu (reduction of bone marrow suppression); type: in vivo
[3] = Pharmacokinetics study of intravenous injection of matrine or oxymatrine with addition of geranium oil (HPLC peak areas); details: with addition of geranium oil versus compound alone
white blood cells = details: taken orally; previously published animal experiments and clinical trials; cited from earlier work
[4] = in vivo, iv
[5] = Day 10, 5-Fu 135 mg/kg IP single dose only
[6] = Day 14, 5-Fu 135 mg/kg IP single dose only
[7] = Day 10, 135 μg/mouse G-CSF and 5-Fu
[8] = Day 14, 135 μg/mouse G-CSF and 5-Fu

O=c1[nH]cc(F)c(=O)[nH]1 [5-Fu, 5-Fluorouracil, reference compound]
weight of mice ([1]; Day 0, 5-Fu only group, in g): 22.0 ± 0.93
weight of mice ([1]; Day 10, 5-Fu only group): 22.3 ± 1.53 g
weight of mice ([1]; Day 14, 5-Fu only group, in g): 23.5 ± 0.78
weight of mice ([1]; Day -2, 5-Fu only group, in g): 20.7 ± 0.90
GR (granulocytes) count [2, 5]: 0.25 ± 0.050 10^3/μl
LY (lymphocytes) count [2, 5]: 3.66 ± 0.648 10^3/μl
MO (monocytes) count [2, 5]: 0.25 ± 0.046 10^3/μl
PLT (platelets) count [2, 5]: 2828 ± 632.4 10^3/μl
RBC (erythrocytes) count [2, 5]: 7.86 ± 0.171 10^6/μl
WBC (total leukocytes) count [2, 5]: 4.17±0.677 10^3/μl
GR (granulocytes) count [2, 6]: 1.65 ± 0.756 10^3/μl
LY (lymphocytes) count [2, 6]: 5.75 ± 0.880 10^3/μl
MO (monocytes) count [2, 6]: 0.59 ± 0.316 10^3/μl
PLT (platelets) count [2, 6]: 2219 ± 750.2 10^3/μl
RBC (erythrocytes) count [2, 6]: 8.09 ± 0.331 10^6/μl
WBC (total leukocytes) count [2, 6]: 7.98 ± 1.575 10^3/μl

O=C1CCC[C@@H]2[C@H]3CCCN4CCC[C@@H](CN12)[C@@H]34 [matrine]
absorption and metabolism of the compound (changes in HPLC peak areas over time) [3]: increase the absorption and metabolism

O=C1CCC[C@@H]2[C@H]3CCC[N+]4([O-])CCC[C@@H](CN12)[C@@H]34 (stereo partly shown) [oxymatrine]
effect on increasing white blood cells (white blood cells): does not show any effect on increasing white blood cells
absorption and metabolism of the compound (changes in HPLC peak areas over time) [4]: increase the absorption and metabolism

B1: G-CSF/5-Fu: granulocyte colony-stimulating factor, comparison treatment given with 5-Fu (protein, UniProt P09919 31-207, looked up)
Granulocyte …: TPLGPASSLPQSFLLKCLEQVRKIQGDGAALQEKLVSECATYKLCHPEELVLLGHSLGIPWAPLSSCPSQALQLAGCLSQLHSGLFLYQGLLQALEGISPELGPTLDTLQLDVADFATTIWQQMEELGMAPALQPTQGAMPAFASAFQRRAGGVLVASHLQSFLEVSYRVLRHLAQP
weight of mice ([1]; Day 0, G-CSF and 5-Fu, in g): 22.0 ± 1.84
weight of mice ([1]; Day 14, G-CSF and 5-Fu, in g): 24.0 ± 1.64
weight of mice ([1]; Day -2, G-CSF and 5-Fu, in g): 20.5 ± 1.76
GR (granulocytes) count [2, 7]: 0.71 ± 0.268** 10^3/μl
LY (lymphocytes) count [2, 7]: 5.01 ± 1.372* 10^3/μl
MO (monocytes) count [2, 7]: 0.38 ± 0.141* 10^3/μl
PLT (platelets) count [2, 7]: 2303 ± 491.7 10^3/μl
RBC (erythrocytes) count [2, 7]: 7.82 ± 0.424 10^6/μl
WBC (total leukocytes) count [2, 7]: 5.46±2.338 10^3/μl
bone marrow suppression effect (WBC) relative to that of 5-Fu only [2, 7]: 51%
suppression effect with respect to granulocytes relative to 5-Fu only [2, 7]: 54%
suppression effect with respect to lymphocytes relative to 5-Fu only [2, 7]: 18%
suppression effect with respect to monocytes relative to 5-Fu only [2, 7]: 7%
WBC (total leukocytes) count ([2]; Day 10, 135 μg/mouse G-CSF and 5-Fu, listed as C-GSF/5-Fu): 5.46 ± 2.338 10^3/μl
GR (granulocytes) count [2, 8]: 1.64 ± 0.405 10^3/μl
LY (lymphocytes) count [2, 8]: 6.12 ± 1.164 10^3/μl
MO (monocytes) count [2, 8]: 0.58 ± 0.266 10^3/μl
PLT (platelets) count [2, 8]: 2105 ± 378.1 10^3/μl
RBC (erythrocytes) count [2, 8]: 8.02 ± 0.340 10^6/μl
WBC (total leukocytes) count [2, 8]: 8.34 ± 1.454 10^3/μl
total leukocyte count and lymphocyte count (only these) versus 5-Fu only [2, 8]: continued to increase to a higher level than that of mice treated with 5-Fu only
